Data on one molecule can be found in patent US10081667B2, “Composition and method for therapeutic agent delivery during pregnancy” (University of Mississippi Medical Center, priority 2013, dated 2018).

Assay [1] concerns endothelial cells (HUVECs). The assay is described as follows: Cellular internalization by fluorescence microscopy, HUVECs. The class given is cell-based, human. Conditions: 1 h exposure, imaged 24 h. The protocol:
(§1) FIG. 18 includes images showing the cellular internalization of SynB1-ELP delivered NOX peptide. Rhodamine-labeled SynB1-ELP-NOX was exposed to cells for 1 h, cells were washed, fresh media was returned, and images were collected 24 h after initial exposure.
(§2) It is confirmed that the SynB1-ELP-NOX polypeptide was internalized by cells. Both endothelial cells (HUVECs) and chorionic cells (BeWo choriocarcinoma cells) were exposed to fluorescently labeled SynB1-ELP-NOX for 1 h. The cells were then washed and given fresh media for 24 h.

Assay [2] relates to BeWo choriocarcinoma cells. The assay can be described thus: Cellular internalization by fluorescence microscopy, BeWo cells. The class given is cell-based. Conditions: 1 h exposure, imaged 24 h. The protocol:
as §1, §2

Assay [3] has as its system placental chorionic villous explants. The assay is described as follows: ROS production in placental chorionic villous explants, dihydroethidium (DHE) assay. The settings on record: 20 or 50 μM, 1% O2, 48 h. The format is cell-based, rat. The method, then:
FIG. 19 includes a graph showing inhibition of reactive oxygen species production of placental villous explants. Villous explants were dissected from rat placentas at day 19 of gestation. Explants were grown ex vivo on a bed of Matrigel in cell culture medium. 24 h after equilibration of explants, media was replaced with media plus SynB1-ELP or SynB1-ELP-NOX, and explants were incubated at 37° C. in a 6% or 1% O2 environment for 48 h. ROS was detected by incubation with 5 μM dihydroethdium for 1 hour, and fluorescence was measured using a florescence plate reader. The assay was performed in triplicate, and data represent the mean±s.e. of three independent experiments each performed with 4 explants per treatment group. *p<0.01, one way ANOVA with post-hoc Bonferonni multiple comparison.
Chorionic villous explants were cut on GD19 and cultured ex vivo on Matrigel coated wells with complete cell culture medium. After equilibration, culture medium was replaced with medium containing SynB1-ELP-NOX or the SynB1-ELP control polypeptides at 20 or 50 μM, and explants were incubated at 6% O2 (representing a healthy placenta) or 1% O2 (representing a preeclamptic placenta). After 48 h exposure to hypoxia, detection of ROS was performed using the dihydroethidium (DHE) assay.

B1: SynB1-ELP-NOX: SynB1 peptide fused to the N-terminus of ELP (SEQ ID NO: 4), NOX peptide at the C-terminus; SEQ ID NO: 16 (protein)
chain: MRGGRLSYSRRRFSTSTGRGCGPGVGVPGAGVPGGGVPGAGVPGGGVPGAGVPGGGVPGAGVPGGGVPGAGVPGGGVPGAGVPGGGVPGAGVPGGGVPGAGVPGVGVPGAGVPGGGVPGAGVPGGGVPGAGVPGGGVPGAGVPGGGVPGAGVPGGGVPGAGVPGGGVPGAGVPGGGVPGAGVPGVGVPGAGVPGGGVPGAGVPGGGVPGAGVPGGGVPGAGVPGGGVPGAGVPGGGVPGAGVPGGGVPGAGVPGGGVPGAGVPGVGVPGAGVPGGGVPGAGVPGGGVPGAGVPGGGVPGAGVPGGGVPGAGVPGGGVPGAGVPGGGVPGAGVPGGGVPGAGVPGVGVPGAGVPGGGVPGAGVPGGGVPGAGVPGGGVPGAGVPGGGVPGAGVPGGGVPGAGVPGGGVPGAGVPGGGVPGAGVPGVGVPGAGVPGGGVPGAGVPGGGVPGAGVPGGGVPGAGVPGGGVPGAGVPGGGVPGAGVPGGGVPGAGVPGGGVPGAGVPGVGVPGAGVPGGGVPGAGVPGGGVPGAGVPGGGVPGAGVPGGGVPGAGVPGGGVPGAGVPGGGVPGAGVPGGGVPGAGVPGVGVPGAGVPGGGVPGAGVPGGGVPGAGVPGGGVPGAGVPGGGVPGAGVPGGGVPGAGVPGGGVPGAGVPGGGVPGAGVPGVGVPGAGVPGGGVPGAGVPGGGVPGAGVPGGGVPGAGVPGGGVPGAGVPGGGVPGAGVPGGGVPGAGVPGGGVPGAGVPGVGVPGAGVPGGGVPGAGVPGGGVPGAGVPGGGVPGAGVPGGGVPGAGVPGGGVPGAGVPGGGVPGAGVPGGGVPGAGVPGWPGSGGCSTRIRRQL
modifications: synthetic SynB1-ELP-NOX sequence
In the case of B1, the “internalization in HUVECs” value in assay [1] is “detectable in a punctate cytoplasmic distribution in both cell lines”. For the same molecule, the “internalization in BeWo cells” value in assay [2] is “detectable in a punctate cytoplasmic distribution in both cell lines”. Moreover, in assay [3], the “ROS production of hypoxic explants” value is “inhibited this ROS production”.
